Legend:
[1] = molecular target: Soc-SpyCatcher displayed on the T4 phage capsid (T4-SpyCatcher phage) (bacteriophage T4); assay: co-sedimentation; sequential co-display on T4-SpyCatcher phage: S-ecto trimers added first at a 0.25:1 ratio, incubated, then HA-stem trimers added at a 1:1 ratio; 4 °C, PBS pH 7.4; SDS-PAGE quantification
[2] = molecular target: Soc-SpyCatcher displayed on the T4 phage capsid (T4-SpyCatcher phage) (bacteriophage T4); assay: co-sedimentation; T4-SpyCatcher phage incubated with SpyTagged S-ecto or HA-stem trimers alone at increasing ratios of trimer to Soc binding sites, 4 °C, 1-2 h, PBS pH 7.4; sedimented at 34 000 g, pellets washed twice, SDS-PAGE and band quantification; covalent SpyCatcher-SpyTag conjugation
[3] = molecular target: Soc-SpyCatcher displayed on the T4 phage capsid (T4-SpyCatcher phage) (bacteriophage T4); assay: co-sedimentation; sequential co-display on T4-SpyCatcher phage: HA-stem trimers added first, incubated, then S-ecto trimers at 1:1; 4 °C, PBS pH 7.4; SDS-PAGE quantification

## Prefusion-stabilized SARS-CoV-2 spike ectodomain trimer with C-terminal SpyTag (from UniProt P0DTC2 14-1208) (domain or fragment)
[1]
  copies per capsid (copies per capsid): 56
[2]
  copies per capsid (copies per capsid): 118
[3]
  copies per capsid (copies per capsid): 35

From PMC12245071
